Experimental data as given in publication PMC2063677.

How the values were obtained:
IMP full length = target: T1, IMP full length (Drosophila melanogaster, UniProt Q8IR99 1-573); assay: filter binding
T1 sequence: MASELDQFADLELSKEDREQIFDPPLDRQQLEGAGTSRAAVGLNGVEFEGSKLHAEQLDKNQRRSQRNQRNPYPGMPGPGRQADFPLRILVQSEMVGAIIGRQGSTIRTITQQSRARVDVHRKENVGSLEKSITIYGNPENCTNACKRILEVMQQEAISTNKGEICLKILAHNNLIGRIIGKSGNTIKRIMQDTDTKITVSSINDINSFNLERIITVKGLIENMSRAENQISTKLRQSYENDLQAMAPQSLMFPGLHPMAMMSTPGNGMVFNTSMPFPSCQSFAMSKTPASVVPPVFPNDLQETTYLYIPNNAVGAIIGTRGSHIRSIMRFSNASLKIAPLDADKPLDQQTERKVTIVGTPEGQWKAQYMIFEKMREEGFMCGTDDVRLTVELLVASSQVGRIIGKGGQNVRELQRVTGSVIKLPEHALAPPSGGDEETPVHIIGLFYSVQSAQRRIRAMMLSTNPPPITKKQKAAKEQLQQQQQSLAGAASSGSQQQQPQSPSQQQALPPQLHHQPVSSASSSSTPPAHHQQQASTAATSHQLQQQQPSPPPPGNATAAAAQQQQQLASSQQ

IMP KH3 = target: T2, IMP KH3 (Drosophila melanogaster, UniProt Q8IR99 301-396); assay: filter binding
T2 sequence: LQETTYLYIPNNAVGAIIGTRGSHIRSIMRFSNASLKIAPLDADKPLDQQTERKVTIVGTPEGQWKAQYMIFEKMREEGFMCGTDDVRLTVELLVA

B1: 3x 4-12-13 WT (UUUAU) (ssRNA)
RNA: GUUUUUAUUAUUUUUAUUUUUUCAACUUUUUAUUAUUUUUAUUUUUUCAACUUUUUAUUAUUUUUAUUUUUUCAAC
B1: binds (IMP full length); binds (IMP KH3).
